Data reported in publication PMC7652997, “Regulation of γ-Aminobutyrate (GABA) Utilization in Corynebacterium glutamicum by the PucR-Type Transcriptional Regulator GabR and by Alternative Nitrogen and Carbon Sources”.

Key:
[1] = biological target: GabR (Cg0565), PucR-type transcriptional regulator of Corynebacterium glutamicum (Corynebacterium glutamicum ATCC 13032); test: SEC; Tag-free GabR on Superdex 200 Increase 10/300 GL, 100 mM phosphate buffer pH 7.0 with 1 mM DTT, 0.75 mL/min; native size from a calibration curve (Kav versus log Mr) of standard proteins; apparent mass 420 kDa against a theoretical monomer mass of 55.75 kDa
GabR [2] = biological target: T1, GabR (Corynebacterium glutamicum WT, UniProt Q8NT36 1-504); test: EMSA; reasonable binding; 10 mM Tris-HCl pH 7.5, 50 mM NaCl, 5% glycerol, 0.005% Triton X-100, 20 min at room temperature; 100 ng DNA, 0-2.6 uM GabR monomer; native PAGE in TB buffer pH; settings: protein: recombinant; tags: N-terminal His10 removed with TEV protease; chain copies: 8; blunt
T1 sequence: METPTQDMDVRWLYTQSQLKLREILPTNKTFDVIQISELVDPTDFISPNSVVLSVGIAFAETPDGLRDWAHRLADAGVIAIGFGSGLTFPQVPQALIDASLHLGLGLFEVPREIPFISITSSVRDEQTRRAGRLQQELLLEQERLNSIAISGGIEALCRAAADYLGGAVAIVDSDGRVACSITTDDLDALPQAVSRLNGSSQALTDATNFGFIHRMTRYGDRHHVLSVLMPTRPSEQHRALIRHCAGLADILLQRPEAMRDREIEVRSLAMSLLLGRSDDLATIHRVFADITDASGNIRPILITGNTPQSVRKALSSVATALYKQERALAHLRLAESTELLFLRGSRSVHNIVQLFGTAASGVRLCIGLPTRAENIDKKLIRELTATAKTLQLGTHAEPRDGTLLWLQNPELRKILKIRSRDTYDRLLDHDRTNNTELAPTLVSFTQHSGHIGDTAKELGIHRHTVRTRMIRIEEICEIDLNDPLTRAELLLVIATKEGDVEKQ

GabR [3] = biological target: T1, GabR; test: EMSA; complex band absent from negative control; 10 mM Tris-HCl pH 7.5, 50 mM NaCl, 5% glycerol, 0.005% Triton X-100, 20 min at room temperature; 100 ng DNA, 0-2.6 uM GabR monomer; native PAGE in TB buffer pH; settings: protein: recombinant; tags: N-terminal His10 removed with TEV protease; chain copies: 8; blunt

GabR (Cg0565), PucR-type transcriptional regulator of Corynebacterium glutamicum (natural protein)
stoichiometry N [1]: 8

B1: FS3 (dsDNA)
DNA 1: CTGTCAATTATCCATATGGGCGAAATATTGT
DNA 2: ACAATATTTCGCCCATATGGATAATTGACAG
binding result (GabR [2]): binds

B2: NC3 (dsDNA)
DNA 1: CACAGGAGGAACCGTGGAAGATCTCTCATAC
DNA 2: GTATGAGAGATCTTCCACGGTTCCTCCTGTG
binding result (GabR [3]): no binding
